± gives the uncertainty stated by the source.

Results on 38 sequences are retold here after the supplement of paper PMC7877785.

A short description of this series: self-splicing fitness, log relative to wild type (ln ratio); higher = more splicing; Tetrahymena group I intron in knt gene, E. coli kanamycin selection, DiMSum; sequences stand for … in CUCUCU…GGAGGGAAAAGUUAUCAGGCAUGCACCUGGUAGCUAGUCUUUAAACCAAUAGAUUGCAUCGGUUUAAAAGGCAAGACCGUCAAAUUGCGGGAAAGGGGUCAACAGCCGUUCAGUACCAAGUCUCAGGGGAAACUUUGAGAUGGCCUUGCAAAGGGUAUGGUAAUAAGCUGACGGACAUGGUCCUAACCACGCAGCCAAGUCCUAAGUCAACAGAUCUUCUGUUGAUAUGGAUGCAGUUCACAGACUAAAUGUCGGUCGGGGAAGAUGUAUUCUUCUCAUAAGAUAUAGUCGGACCUCUCCUUAAUGGGAGCUAGCGGAUGAAGUGAUGCAACACUGGAGCCGCUGGGAACUAAUUUGUAUGCGAAAGUAUAUUGAUUAGUUUUGGAGUACUCGUGGUCG
In a few lines: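 Library with all eight P1ex-region intron nucleotides randomised, intron inside the knt kanamycin-resistance gene on pET-22b(+), in E. coli BL21(DE3). Cells grew overnight at 37°C or 30°C on LB agar with or without 25 μg/mL kanamycin (plus 100 μg/mL carbenicillin, 50 μM IPTG, 0.2% rhamnose), in six replicate transformations. Pooled colonies were amplicon-sequenced on Illumina HiSeq 2500. DiMSum fitness is the error-weighted combination of wild-type-normalised replicate fold changes, kanamycin versus none.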

Turning to CUUCAGCAAUAUUACGAUUG, the “self-splicing fitness (ln)” value is, setting by setting: (30 °C) -0.473 ± 0.045; (37 °C) 0.038 ± 0.063.

Regarding AAAUAGCAAUAUUACGUGGU, the “self-splicing fitness (ln)” value is -3.87 ± 0.16 (30 °C) and -2.84 ± 0.15 (37 °C). In the case of GACUAGCAAUAUUACGGCGG, the “self-splicing fitness (ln)” value is, setting by setting: (30 °C) -3.72 ± 0.21; (37 °C) -2.14 ± 0.13. As for GGAUAGCAAUAUUACGUGGU, the “self-splicing fitness (ln)” value is, setting by setting: (30 °C) -2.33 ± 0.14; (37 °C) -2.09 ± 0.17. The matching figures for GAAGAGCAAUAUUACGCGUG: -2.43 ± 0.078 and -1.32 ± 0.085. On the same counts, the results for CGGCAGCAAUAUUACGCGCG are -2.65 ± 0.22 and -1.54 ± 0.23. On the same counts, the results for UACUAGCAAUAUUACGAGUU are -2.16 ± 0.11 and -0.685 ± 0.1. In the case of CGAUAGCAAUAUUACGUCAC, the “self-splicing fitness (ln)” value was -3.44 ± 0.26 (30 °C) and -2.34 ± 0.25 (37 °C). Consider GGUGAGCAAUAUUACGAUGC, for which the “self-splicing fitness (ln)” value is, setting by setting: (30 °C) -1.6 ± 0.13; (37 °C) -0.514 ± 0.19. UCUGAGCAAUAUUACGCCAA: the “self-splicing fitness (ln)” value (37 °C) is -1.51 ± 0.32. Turning to UGAGAGCAAUAUUACGCUUU, the “self-splicing fitness (ln)” value runs as follows: (30 °C) -4.15 ± 0.29; (37 °C) -1.96 ± 0.17. As to AACCAGCAAUAUUACGCAGG, the “self-splicing fitness (ln)” value reads like this: (30 °C) -4.46 ± 0.2; (37 °C) -2.28 ± 0.14. Regarding UUAAAGCAAUAUUACGGACC, the “self-splicing fitness (ln)” value was -2.27 ± 0.18 (30 °C) and 0.778 ± 0.16 (37 °C). For UACAAGCAAUAUUACGAUUA, the “self-splicing fitness (ln)” value (30 °C) is -0.0989 ± 0.079 and the “self-splicing fitness (ln)” value (37 °C) is 0.278 ± 0.085. As to AGCUAGCAAUAUUACGCAGC, the “self-splicing fitness (ln)” value (37 °C) is -0.17 ± 0.24. Regarding GUUUAGCAAUAUUACGAGUG, the “self-splicing fitness (ln)” value by setting is: (30 °C) -3.74 ± 0.17; (37 °C) -0.634 ± 0.11. For the sequence CAAGAGCAAUAUUACGGGUA, the “self-splicing fitness (ln)” value (30 °C) was -3.26 ± 0.4 and the “self-splicing fitness (ln)” value (37 °C) was -1.64 ± 0.28.

Consider GUAUAGCAAUAUUACGACUG, for which the “self-splicing fitness (ln)” value was -2.88 ± 0.33 (30 °C) and -2.23 ± 0.33 (37 °C). On the same counts, the results for CCACAGCAAUAUUACGGUGA are -0.943 ± 0.06 and -0.339 ± 0.062.

Regarding ACUGAGCAAUAUUACGGGGA, the “self-splicing fitness (ln)” value is -2.48 ± 0.17 (30 °C) and -1.92 ± 0.18 (37 °C). The matching figures for GAUAAGCAAUAUUACGAGUA: -1.84 ± 0.15 and -1.45 ± 0.14. On to GUGCAGCAAUAUUACGAUUC, for which the “self-splicing fitness (ln)” value (30 °C) stood at 0.476 ± 0.074 and the “self-splicing fitness (ln)” value (37 °C) was -0.403 ± 0.073. The matching figures for CUACAGCAAUAUUACGCCAA: -3.32 ± 0.17 and -3.04 ± 0.25. As to UUAAAGCAAUAUUACGUAUA, the “self-splicing fitness (ln)” value reads like this: (30 °C) -1.26 ± 0.12; (37 °C) -0.271 ± 0.14. On to CCUCAGCAAUAUUACGAGGU, for which the “self-splicing fitness (ln)” value is -3.38 ± 0.21 (30 °C) and -2.62 ± 0.19 (37 °C). Regarding AACUAGCAAUAUUACGUGUU, the “self-splicing fitness (ln)” value was -2.68 ± 0.11 (30 °C) and -2.45 ± 0.16 (37 °C). On the same counts, the results for AUGGAGCAAUAUUACGAUGU are -1.25 ± 0.14 and -0.184 ± 0.2.

As for GAAAAGCAAUAUUACGCAAC, the “self-splicing fitness (ln)” value was -2.92 ± 0.16 (30 °C) and -0.437 ± 0.16 (37 °C). UUCUAGCAAUAUUACGGCAC: the “self-splicing fitness (ln)” value (37 °C) was -0.626 ± 0.23. CCAAAGCAAUAUUACGGACA: the “self-splicing fitness (ln)” value is -2.84 ± 0.2 (30 °C) and -2.86 ± 0.25 (37 °C).

Regarding AACAAGCAAUAUUACGCACU, the “self-splicing fitness (ln)” value was 0.195 ± 0.069 (30 °C) and -0.195 ± 0.083 (37 °C). On to UAGGAGCAAUAUUACGAUAG, for which the “self-splicing fitness (ln)” value runs as follows: (30 °C) -4.07 ± 0.28; (37 °C) -1.95 ± 0.2.

Regarding AAUCAGCAAUAUUACGUUAA, the “self-splicing fitness (ln)” value is -0.816 ± 0.072 (30 °C) and -0.587 ± 0.077 (37 °C). GGAGAGCAAUAUUACGAGUA: the “self-splicing fitness (ln)” value runs as follows: (30 °C) -3.36 ± 0.41; (37 °C) -2.48 ± 0.32. Take CUCGAGCAAUAUUACGUCAC: the “self-splicing fitness (ln)” value is -3.1 ± 0.3 (30 °C) and -1.11 ± 0.22 (37 °C).

On to GCCGAGCAAUAUUACGGCAA, for which the “self-splicing fitness (ln)” value is -2.4 ± 0.33 (30 °C) and -1.91 ± 0.31 (37 °C).

For the sequence AUUCAGCAAUAUUACGGCGU, the “self-splicing fitness (ln)” value is, setting by setting: (30 °C) 0.256 ± 0.057; (37 °C) 0.488 ± 0.074.

In the case of AGGCAGCAAUAUUACGGUUA, the “self-splicing fitness (ln)” value (30 °C) was -0.809 ± 0.077 and the “self-splicing fitness (ln)” value (37 °C) was 0.285 ± 0.08.
